# Measured values reported in paper PMC5510750 (Immunity, 2017).
# T1: IFN-λR1, soluble recombinant receptor (UniProt Q8IU57 21-226)
# T1 sequence: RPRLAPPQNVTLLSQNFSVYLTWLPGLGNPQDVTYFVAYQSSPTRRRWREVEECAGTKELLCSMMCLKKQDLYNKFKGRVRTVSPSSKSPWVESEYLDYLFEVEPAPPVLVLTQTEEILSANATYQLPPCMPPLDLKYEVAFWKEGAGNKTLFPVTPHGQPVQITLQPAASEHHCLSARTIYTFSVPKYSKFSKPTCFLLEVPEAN
# B1: H11/IFN-λR1 binary complex (complex)
# chain 1: GSARGCHIAQFKSLSPRELQAFKRAKDALEESLLLKDCKCRSRLFPRTWDLRQLQVRERPVALEAELALTLKVLDATADTDPALGDVLDQPLHTLHHILSQLRACIQPQPTAGPRTRGRLHRWLHRLQEAPKKESPGCLEASVTFNLFRLLARDLNCVASGDLCEAAAHHHHHHHH
# chain 2: RPRLAPPQNVTLLSQNFSVYLTWLPGLGNPQDVTYFVAYQSSPTRRRWREVEECAGTKELLCSMMCLKKQDLYNKFKGRVRTVSPSSKSPWVESEYLDYLFEVEPAPPVLVLTQTEEILSANATYQLPPCMPPLDLKYEVAFWKEGAGNKTLFPVTPHGQPVQITLQPAASEHHCLSARTIYTFSVPKYSKFSKPTCFLLEVPEAN
# B2: IFN-λ3 H11, recombinant (designed binder)
# chain: GSARGCHIAQFKSLSPRELQAFKRAKDALEESLLLKDCKCRSRLFPRTWDLRQLQVRERPVALEAELALTLKVLDATADTDPALGDVLDQPLHTLHHILSQLRACIQPQPTAGPRTRGRLHRWLHRLQEAPKKESPGCLEASVTFNLFRLLARDLNCVASGDLCEAAAHHHHHHHH
# B3: Wild-type IFN-λ3, recombinant (ligand)
# chain: VPVARLRGALPDARGCHIAQFKSLSPQELQAFKRAKDALEESLLLKDCKCRSRLFPRTWDLRQLQVRERPVALEAELALTLKVLEATADTDPALGDVLDQPLHTLHHILSQLRACIQPQPTAGPRTRGRLHHWLHRLQEAPKKESPGCLEASVTFNLFRLLTRDLNCVASGDLCV
# B4: IL-10Rβ, monomeric soluble receptor (receptor)
# chain: MVPPPENVRMNSVNFKNILQWESPAFAKGNLTFTAQYLSYRIFQDKCMNTTLTECDFSSLSKYGDHTLRVRAEFADEHSDWVNITFCPVDDTIIGPPGMQVEVLADSLHMRFLAPKIENEYETWTMKNVYNSWTYNVQYWKNGTDEKFQITPQYDFEVLRNLEPWTTYCVQVRGFLPDRNKAGEWSEPVCEQTTHDETVPS
# modifications: Alexa 647 label (in the yeast staining)
# Assays:
# Assay in all cases: SPR
# [1] = molecular target: B4
# [2] = molecular target: T1, IFN-λR1, soluble recombinant receptor
# [3] = molecular target: B1
Binder,Kd [2],also measured
B1,–,Kd [1]: 560 nM
B2,~150 nM,–
B3,~850 nM,–
B4,–,fold increase in affinity against the wild-type IFN-λ3/IFN-λR1 binary complex [3]: 30 fold
